What is called Kd is the concentration at which binding is half-saturated. Lower therefore signals tighter binding. The koff is the first-order rate constant of dissociation. A low value points to a long-lived complex. The kon is a measure of how fast the partners come together.

The text below walks through data of patent publication US20230139700A1 (BIO THERA SOLUTIONS, published 2023).

This test addresses T1, hOX40-his (human, UniProt P43489 29-216).
T1 construct: range 1-216; Made in HEK293; The stated range starts at residue 1 (holds the signal peptide of the entry); no cleavage site stated; not shown: his tag
T1 sequence (looked up): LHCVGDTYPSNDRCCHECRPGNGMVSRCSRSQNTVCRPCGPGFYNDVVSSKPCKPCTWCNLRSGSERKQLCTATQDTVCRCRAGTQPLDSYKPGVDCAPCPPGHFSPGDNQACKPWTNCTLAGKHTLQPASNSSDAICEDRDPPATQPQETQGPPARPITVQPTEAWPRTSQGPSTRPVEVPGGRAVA
Nature of the test: BIACORE, antibody on the probe, 20 nM OX40-his. An excerpt:
Table 10 illustrates the CDRs of eight full antibodies containing these amino acid mutations, and the rest of the sequences are the same as those of antibody-F23-32K. […] The sequences of the anti-OX40 antibody (antibody M) are shown in Table 12; wherein, the expression cells used for the antibodies above (including antibody M) are CHO-S cells, and the method for preparing the antibody M-KF is as follows: the antibody M was identical to the antibody M-KF in terms of amino acid sequence and was expressed by the CHO cell line in which the fut8 gene was knocked out (the content of fucose in antibody M-KF was about 0%).
(In general: Surface plasmon resonance follows binding to a sensor surface in real time, without labels.)

B1: T + TD (antibody, human IgG1, kappa, V domains shown)
VH: QVQLEESGGGVVQPGESLRLSCAASGFTFSSYGMHWVRQAPGKGLEWVAVISYDGSNQYYADSVKGRFTISRDNSKNTLYLQMNSLRAEDTAVYYCAKDNQDTSPDVGIDYWGQGTLVTVSS
VL: DIQMTQSPSSLSASVGDTVTITCRASQNISPFLNWYQQKPGKAPKLLIYAASSLQSGVPSRFSGSGSGTDFTLTISSLQPEDFATYYCQQYTDYPLTFGGGTKVEIKR
Consider B1, for which the Kd was determined as 5.01 nM, the koff came to 0.00139 s⁻¹ and the kon was determined as 278000 M⁻¹ s⁻¹.

B2: T + VG (antibody, human IgG1, kappa, V domains shown)
VH: QVQLEESGGGVVQPGESLRLSCAASGFTFSSYGMHWVRQAPGKGLEWVAVISYDGSNQYYADSVKGRFTISRDNSKNTLYLQMNSLRAEDTAVYYCAKDNQDTSPDVGIDYWGQGTLVTVSS
VL: DIQMTQSPSSLSASVGDTVTITCRASQNISPFLNWYQQKPGKAPKLLIYAAVGLQSGVPSRFSGSGSGTDFTLTISSLQPEDFATYYCQQYNSYPLTFGGGTKVEIKR
With B2, the Kd is 4.54 nM, the off-rate (koff) came to 0.00133 s⁻¹ and the association rate constant (kon) was 292000 M⁻¹ s⁻¹.

B3: T + VGL + TD (antibody, human IgG1, kappa, V domains shown)
VH: QVQLEESGGGVVQPGESLRLSCAASGFTFSSYGMHWVRQAPGKGLEWVAVISYDGSNQYYADSVKGRFTISRDNSKNTLYLQMNSLRAEDTAVYYCAKDNQDTSPDVGIDYWGQGTLVTVSS
VL: DIQMTQSPSSLSASVGDTVTITCRASQNISPFLNWYQQKPGKAPKLLIYAAVGLQSGVPSRFSGSGSGTDFTLTISSLQPEDFATYYCQQYTDYPLTFGGGTKVEIKR
B3 gave a Kd of 0.266 nM, a dissociation rate constant (koff) of 0.000119 s⁻¹ and an on-rate constant (kon) of 448000 M⁻¹ s⁻¹.

B4: WEST + VG (antibody, human IgG1, kappa, V domains shown)
VH: QVQLEESGGGVVQPGESLRLSCAASGFTFSSYGMHWVRQAPGKGLEWVAVIWEDGSNQYYADSVKGRFTISRDNSKNTLYLQMNSLRAEDTAVYYCAKDNQDTSPDVGIDYWGQGTLVTVSS
VL: DIQMTQSPSSLSASVGDTVTITCRASQNISPFLNWYQQKPGKAPKLLIYAAVGLQSGVPSRFSGSGSGTDFTLTISSLQPEDFATYYCQQYNSYPLTFGGGTKVEIKR
Molecule B4 gave a Kd of 0.77 nM, a koff of 0.000348 s⁻¹ and a kon of 452000 M⁻¹ s⁻¹.

B5: WEST + TD (antibody, human IgG1, kappa, V domains shown)
VH: QVQLEESGGGVVQPGESLRLSCAASGFTFSSYGMHWVRQAPGKGLEWVAVIWEDGSNQYYADSVKGRFTISRDNSKNTLYLQMNSLRAEDTAVYYCAKDNQDTSPDVGIDYWGQGTLVTVSS
VL: DIQMTQSPSSLSASVGDTVTITCRASQNISPFLNWYQQKPGKAPKLLIYAASSLQSGVPSRFSGSGSGTDFTLTISSLQPEDFATYYCQQYTDYPLTFGGGTKVEIKR
Regarding B5, the Kd was 0.653 nM, the koff was 0.000321 s⁻¹ and the kon was 491000 M⁻¹ s⁻¹.

B6: WEST + VL (antibody, human IgG1, kappa, V domains shown)
VH: QVQLEESGGGVVQPGESLRLSCAASGFTFSSYGMHWVRQAPGKGLEWVAVIWEDGSNQYYADSVKGRFTISRDNSKNTLYLQMNSLRAEDTAVYYCAKDNQDTSPDVGIDYWGQGTLVTVSS
VL: DIQMTQSPSSLSASVGDTVTITCRASQNISPFLNWYQQKPGKAPKLLIYAASSLQSGVPSRFSGSGSGTDFTLTISSLQPEDFATYYCQQYNSYPLTFGGGTKVEIKR
Molecule B6 registered a Kd of 1.93 nM, a koff of 0.000714 s⁻¹ and a kon of 371000 M⁻¹ s⁻¹.

B7: VH + VGTD (antibody, human IgG1, kappa, V domains shown)
VH: QVQLEESGGGVVQPGESLRLSCAASGFTFSSYGMHWVRQAPGKGLEWVAVISYDGSNQYYADSVKGRFTISRDNSKNTLYLQMNSLRAEDTAVYYCAKDNQDSSPDVGIDYWGQGTLVTVSS
VL: DIQMTQSPSSLSASVGDTVTITCRASQNISPFLNWYQQKPGKAPKLLIYAAVGLQSGVPSRFSGSGSGTDFTLTISSLQPEDFATYYCQQYTDYPLTFGGGTKVEIKR
On to B7, for which binding was put at a Kd of 0.565 nM, the koff came to 0.000243 s⁻¹ and the kon was 431000 M⁻¹ s⁻¹.
